Assay results from PMC10724200, “A peptide derived from interleukin-10 exhibits potential anticancer activity and can facilitate cell targeting of gold nanoparticles loaded with anticancer therapeutics” (Communications Chemistry, 2023).
“Also recorded” adds a separate entry of the source. Ends that are not written are not given here.

Assays:
[1] = biological target: T1, recombinant receptor human IL-10Ra protein (Homo sapiens, UniProt Q13651); assay: Biolayer interferometry kinetic assay, binding to IL-10Ra; settings: for kon: read-out: ka (association constant)
T1 sequence (Q13651 22-578): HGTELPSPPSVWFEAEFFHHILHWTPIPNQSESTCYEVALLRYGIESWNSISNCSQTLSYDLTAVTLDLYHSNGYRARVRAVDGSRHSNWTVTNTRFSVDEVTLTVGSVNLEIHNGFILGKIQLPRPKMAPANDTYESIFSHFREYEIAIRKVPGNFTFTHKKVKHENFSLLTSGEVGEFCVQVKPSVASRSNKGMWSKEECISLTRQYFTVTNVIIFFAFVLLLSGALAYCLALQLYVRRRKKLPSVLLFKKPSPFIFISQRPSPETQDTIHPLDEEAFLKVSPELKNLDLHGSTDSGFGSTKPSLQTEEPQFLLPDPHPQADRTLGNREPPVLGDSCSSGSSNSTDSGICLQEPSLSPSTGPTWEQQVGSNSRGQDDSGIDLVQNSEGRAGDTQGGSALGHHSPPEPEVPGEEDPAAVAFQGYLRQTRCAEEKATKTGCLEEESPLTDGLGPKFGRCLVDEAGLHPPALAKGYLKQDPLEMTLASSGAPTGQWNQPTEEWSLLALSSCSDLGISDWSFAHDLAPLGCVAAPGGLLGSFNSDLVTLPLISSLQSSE
Experimental: Biolayer interferometry (BLI) was applied to analyze peptide–receptor protein interactions. BLI was performed with a ForteBio Octet RED96e System (Sartorius AG, Göttingen, Germany) by using high-precision streptavidin and biosensors. The biosensors were hydrated in a plate for 15 min and then loaded with 10 μg/mL recombinant receptor human IL-10Ra protein and incubated for 150 s. […] After the association step, the biosensor was shifted to the dissociation buffer, phosphate-buffered saline (PBS) with 0.05% Tween20, for dissociation. Dissociation was recorded until equilibrium was reached (120 s).
To measure the binding ability of the designed and negative control peptides (NM25, NK20, NK20a, and control scramble peptide CG20) to the receptor IL-10Ra in vitro, BLI experiments were performed. […] When binding with IL-10Ra, the association constant (ka) of NK20 and NK20a was 1.02 × 10^4 (1/Ms) and 8.14 × 10^3 (1/Ms), respectively. The ka values of the refined peptides were approximately 12-fold higher than that of NM25. […] The equilibrium dissociation constant (KD) of NK20a interactions with IL-1R1was approximately 2000 times greater than that with IL-10Ra, and the calculated dissociation constant of NK20a interactions with IL-1R1 was to be 5000 times greater than that with IL-10Ra interactions (Table 2). […] As a result, NK20a was used for further investigations in this study.
Fig. 3 BLI kinetic assays of the designed peptides binding to the receptor IL-10Ra. Wavelength shift curves show the association and dissociation of the designed peptides (a) NM25, (b) NK20, (c) NK20a, (d) CG20 binding to the IL-10 receptor, and (e) NK20a binding to a control receptor IL-1R1 at various concentrations. Dissociation was recorded at 120 s after the binding started (black dotted line).

[2] = test system: RAW 264.7 macrophages; assay: Atomic force microscopy of macrophage morphology / activation; format: cell-based; settings: RAW 264.7, AFM; LPS 10 ng/mL, IL-10 10 ng/mL, NK20a 50 μg/mL pretreatment 30 min with LPS; fixed after 24 h
Experimental: Cell morphology was evaluated through atomic force microscopy (AFM) to observe the effects of the peptide on the cells. For AFM experiments, RAW 264.7 macrophages (5 × 10^4 cells/mL) were seeded on coverslips that had been treated with HCl to facilitate cell attachment. The cells were treated with lipopolysaccharides (LPS), NK20a, or IL-10 and incubated at 37 °C. After 24 h of incubation, the medium was removed, and the cells were washed twice with PBS. The cells were then fixed with 4% glutaraldehyde for 40 min. Finally, the fixation solution was removed, the samples were gently washed three times with Milli Q water, and then the samples were dried in a desiccator for 3 h. Cell morphology was imaged using an AFM instrument (Nanowizard, JPK BioAFM, Bruker Nano GmbH, Berlin, Germany). […] The AFM probes used were oxide-sharpened silicon nitride (Si3N4) probes (OMCL-TR400PB-1, Olympus, Tokyo, Japan) with a spring constant of 0.02 N/m. The SPM image processing software package version 3.1.6 (JPK BioAFM, Bruker Nano GmbH, Berlin, Germany) was used for processing and analysis of AFM image data.
Macrophages play a key role in tumor cell clearance. […] In this study, we examined the ability of NK20a to inhibit the anti-inflammatory effects of IL-10 on macrophages. The RAW 264.7 macrophage cell line was used in the evaluation, and the activation of macrophage cells was visualized through AFM. […]

[3] = test system: BJAB B-lymphoma cells; assay: Cell viability assay (CCK-8), B-lymphoma cells; format: cell-based; settings: 50 μg/mL NK20a and/or 10 ng/mL IL-10, 48 h, triplicate
Experimental: BJAB B-lymphoma cell lines were cultured in RPMI 1640 medium supplemented with 10% fetal bovine serum. RAW 264.7 macrophage and BT-474 human breast tumor cell lines were cultured in Dulbecco’s Modified Eagle Medium (DMEM) supplemented with 10% fetal bovine serum, 1% L-glutamine, 100 U/ml penicillin, 100 U/ml streptomycin, and sodium pyruvate. The cells were incubated at 37 °C in a 5% CO2 atmosphere.
For the cell viability assay, B-lymphoma cells were cultured in 96-well plates at a density of 3 × 10^3 cells/well for 24 h. The cells were then treated with 10 ng/mL IL-10 and 50 μg/mL NK20a, and further incubated for 48 h. After incubation, 10 μL of Cell Counting Kit-8 (CCK-8; Enzo Life Sciences, NY, USA) reagent was added, and the cells were incubated at 37 °C for 1 h. Cell viability was quantified by measuring the absorbance at 450 nm by using an ELISA plate reader (CLARIOstar Plus, BMG Labtech, Ortenberg, Germany).
Fig. 4 In vitro binding assay and cytotoxicity study. a B-lymphoma cells were treated with NK20a, and the fluorescence of the treated cells was analyzed through flow cytometry to determine the binding ability of NK20a to the cell surface. The fluorescence distribution of FITC was categorized as treated with NK20a (green) and untreated (red). b Bar chart showing the cell viability of the B-lymphoma cell line treated with 10 ng/mL IL-10, 50 μg/mL NK20a, and both, respectively. […]

[4] = test system: BT-474 breast cancer cells; assay: Therapeutic efficacy: cell viability (CCK-8), BT-474 breast cancer cells; format: cell-based, human
Description: 5-FU is a cytotoxic chemotherapeutic drug used in the treatment of a variety of cancers, including breast cancer. […] The gold nanoparticles fabricated in this study may be used as a delivery material to deliver 5-FU into cancer cells. Here, we loaded 5-FU onto NK20a/Poly A15@Au and Poly A15@Au nanoparticles.

[5] = parameters: method as in 2 sources, ref 40 = [40]; PMID 22211087; doi:10.7150/ijms.9.33; 40. Kadoyama K Adverse event profiles of 5-fluorouracil and capecitabine: data mining of the public version of the FDA adverse event reporting system, AERS, and reproducibility of clinical observation ||| ref 49 = [49]; 49. Casale, J. & Patel, P. Fluorouracil [Updated 2022 Nov 24]. In StatPearls. (StatPearls Publishing, Treasure Island (FL), 2023).; settings: cited from earlier work
Description: 5-FU is a cytotoxic chemotherapeutic drug used in the treatment of a variety of cancers, including breast cancer. […] The gold nanoparticles fabricated in this study may be used as a delivery material to deliver 5-FU into cancer cells. Here, we loaded 5-FU onto NK20a/Poly A15@Au and Poly A15@Au nanoparticles. […] It works by inhibiting the normal synthesis of thymidine by incorporating 5-FU metabolites into DNA and RNA, eventually leading to the arrest of synthetic pathways and subsequent apoptosis of treated cells[47],[48]. 5-FU is typically administered via intravenous injection. Infusions of 5-FU can be rapidly […] through the circulatory system, and prolonged administration of 5-FU is required to maintain a high level of 5-FU in the body, thereby enhancing clinical efficacy. However, its nonspecific toxicity, ...

[6] = biological target: T2, recombinant receptor human IL-10Ra protein (human, UniProt Q13651 22-235); assay: BLI; steady-state analysis
T2 chain: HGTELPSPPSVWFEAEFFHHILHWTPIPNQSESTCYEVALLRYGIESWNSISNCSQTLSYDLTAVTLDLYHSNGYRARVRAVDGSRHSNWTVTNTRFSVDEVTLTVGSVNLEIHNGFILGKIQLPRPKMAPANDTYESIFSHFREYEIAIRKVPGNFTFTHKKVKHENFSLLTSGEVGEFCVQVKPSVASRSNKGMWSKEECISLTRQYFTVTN

[7] = biological target: T3, recombinant receptor human IL-10Ra protein (human, UniProt Q13651 22-235); assay: BLI; ForteBio Octet RED96e, streptavidin biosensors loaded with 10 μg/mL recombinant human IL-10Ra (150 s); peptides at 3.12-100.0 μM, association 120 s; dissociation 120 s in PBS with 0.05% Tween20; settings: both partners purified
T3 construct: Interleukin-10 receptor subunit alpha, human, recombinant; also called IL-10 receptor
T3 sequence (looked up): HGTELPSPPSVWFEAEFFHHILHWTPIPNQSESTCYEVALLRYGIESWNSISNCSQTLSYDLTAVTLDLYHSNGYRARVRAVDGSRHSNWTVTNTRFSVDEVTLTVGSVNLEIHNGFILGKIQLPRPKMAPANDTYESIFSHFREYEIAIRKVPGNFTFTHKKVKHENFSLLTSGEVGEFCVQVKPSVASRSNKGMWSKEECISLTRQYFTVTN

[8] = biological target: receptor IL-1R1 (UniProt P14778 18-569, Source and limits not given; taken as the recombinant extracellular domain (UniProt topological domain 18-336) by convention. Human inferred from the human IL-10Ra used in the same BLI assay. Likely); assay: BLI; control receptor IL-1R1 in place of IL-10Ra; NK20a at various concentrations; settings: both partners purified
[9] = BLI kinetic, human IL-10Ra, peptides 3.12-100.0 μM, association 120 s

Chain of receptor IL-1R1 (P14778 18-569): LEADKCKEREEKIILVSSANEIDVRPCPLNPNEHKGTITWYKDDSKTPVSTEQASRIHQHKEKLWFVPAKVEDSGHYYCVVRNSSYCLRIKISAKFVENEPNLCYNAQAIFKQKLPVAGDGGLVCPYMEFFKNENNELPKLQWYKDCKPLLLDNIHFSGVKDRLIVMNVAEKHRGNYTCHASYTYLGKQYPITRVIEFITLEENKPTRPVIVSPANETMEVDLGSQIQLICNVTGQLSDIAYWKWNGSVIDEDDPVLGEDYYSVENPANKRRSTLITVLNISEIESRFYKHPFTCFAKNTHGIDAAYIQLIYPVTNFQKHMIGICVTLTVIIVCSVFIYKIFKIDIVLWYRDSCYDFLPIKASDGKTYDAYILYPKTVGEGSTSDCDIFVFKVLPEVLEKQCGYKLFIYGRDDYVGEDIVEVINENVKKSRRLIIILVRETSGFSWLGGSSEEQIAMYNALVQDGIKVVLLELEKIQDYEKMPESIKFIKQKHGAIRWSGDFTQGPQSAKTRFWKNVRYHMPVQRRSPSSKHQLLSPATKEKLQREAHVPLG

**Q.** For NMLRDLRDAFSRVKTFFQMKDQLDN [NM25], which kon [1, 9] is on record?
**A.** The kon was 832 M⁻¹ s⁻¹.

**Q.** With “CPLNGSTVYGHLRHCLSCSG [CG20, random, control scramble peptide, reference compound]” as the molecule, how does the “binding to IL-10Ra (in words)” value ([1]; BLI) read?
**A.** The value was “not able to bind to IL-10Ra”.

**Q.** For “IL-10: immune regulatory cytokine with strong anti-inflammatory activity”, which “kd (dissociation constant)” value ([1]; BLI kinetic, human IL-10Ra, dissociation 120 s in PBS with 0.05% Tween20) is on record?
**A.** Its value is less than 1e-07 s⁻¹.

**Q.** And the “ka (association constant)” value [1, 9]?
**A.** Its value is 224000 M⁻¹ s⁻¹.

**Q.** What about the “macrophage activation, morphology (in words)” value [2] of the same molecule?
**A.** The value was “the activation of macrophages was suppressed; also recorded: inhibited the inflammation of LPS-stimulated cells”.

**Q.** And the “cell proliferation / viability (in words)” value [3]?
**A.** The value was “did not significantly promote the proliferation of lymphoma B cells”.

**Q.** Which kon [1, 9] does the source give for NMLRDLRDAFSRVKTFFQMK [NK20] here?
**A.** Its kon is 10200 M⁻¹ s⁻¹.

**Q.** With `O=c1[nH]cc(F)c(=O)[nH]1` [5-FU, 5-fluorouracil] as the molecule, how does the survival rate ([4]; BT-474, free 5-FU at 80 μM, 72 h, CCK-8) read?
**A.** The survival rate was “more than 70%”.

**Q.** And the “cell survival / therapeutic effect on BT-474 (in words)” value ([4]; CCK-8, 72 h, 5-FU free up to 80 μM)?
**A.** The value was “did not exhibit a significant therapeutic effect against the breast cancer cells”.

**Q.** What about the “membrane permeability (in words)” value [5] of the same molecule?
**A.** Its value is “poor membrane permeability”.

**Q.** And the “membrane permeability / half-life in plasma (in words)” value [5]?
**A.** Its value is “poor membrane permeability, and short half-life in plasma”.

B1: NM25 peptide (peptide)
peptide: NMLRDLRDAFSRVKTFFQMKDQLDN
notes: human IL-10; also called original peptide; source: synthetic peptide (GeneMark, GMbiolab Co., solid-phase)
**Q.** For B1, which Kd [6] is on record?
**A.** The Kd was 0.55 µM.

**Q.** And the Kd [7]?
**A.** The Kd was 41 µM.

**Q.** What about the koff [7] of the same molecule?
**A.** The koff was 0.0341 s⁻¹.

B2: Human interleukin-10 (IL-10) (ligand, UniProt P22301 19-178, looked up)
chain: SPGQGTQSENSCTHFPGNLPNMLRDLRDAFSRVKTFFQMKDQLDNLLLKESLLEDFKGYLGCQALSEMIQFYLEEVMPQAENQDPDIKAHVNSLGENLKTLRLRLRRCHRFLPCENKSKAVEQVKNAFNKLQEKGIYKAMSEFDIFINYIEAYMTMKIRN
notes: Interleukin-10, human; the methods of the BLI describe only the peptides as analytes; also called IL-10 cytokine
**Q.** Which Kd [6] does the source give for B2 here?
**A.** Its Kd is 1 µM.

**Q.** What about the Kd [7] of the same molecule?
**A.** The Kd was less than 1e-06 µM.

**Q.** What about the koff [7] of the same molecule?
**A.** The koff was less than 1e-07 s⁻¹.

**Q.** What about the kon [7] of the same molecule?
**A.** The kon was 224000 M⁻¹ s⁻¹.

B3: NK20 peptide (peptide)
peptide: NMLRDLRDAFSRVKTFFQMK
notes: truncation of NM25 (five C-terminal residues removed); stretch of human IL-10; source: synthetic peptide (GeneMark, GMbiolab Co., solid-phase)
**Q.** Which Kd [6] does the source give for B3 here?
**A.** Its Kd is 0.26 µM.

**Q.** What about the Kd [7] of the same molecule?
**A.** Its Kd is 21.4 µM.

**Q.** And the koff [7]?
**A.** The koff was 0.218 s⁻¹.

B4: NK20a peptide (peptide)
peptide: NMLRNLRNAFSRVKTFFQMK
notes: NK20 with two Asp replaced by Asn; stretch of human IL-10; source: synthetic peptide (GeneMark, GMbiolab Co., solid-phase)
**Q.** For B4, which Kd [8] is on record?
**A.** The Kd was 28000 µM.

**Q.** What about the koff [8] of the same molecule?
**A.** The koff was 512 s⁻¹.

**Q.** What about the Kd [6] of the same molecule?
**A.** The Kd was 0.15 µM.

**Q.** What about the Kd [7] of the same molecule?
**A.** Its Kd is 11.2 µM.

**Q.** And the koff [7]?
**A.** Its koff is 0.0909 s⁻¹.
